Data reported in patent publication US20220347324A1 (Bristol-Myers Squibb, published 2022).
Each block holds one binder with its values, some of them ahead of it.

Experiments:
[1] = target: T1, human PD-L1 expressed on cells (hPD-L1-positive L2987 cells, L2987 xenografts, human lung tumor tissue) (human, UniProt Q9NZQ7 19-290); test: in vivo PET in mice with bilateral xenografts, last 10 min of a 2 h scan
T1 construct: whole, on cells; also called hPD-L1(+) L2987; PD-L1 positive cells L2987
Description: (§1) A 10-minute transmission image was first acquired using a ⁵⁷Co point source for the purpose of attenuation correction of the final PET images. Following the transmission scan, radiotracer solutions were administered via the previously installed tail vein catheters and a 2 hour emission image was acquired. […] All injections were formulated in 200 μL saline prior to injection. Exact injected doses were calculated by taking direct measurements of the formulated dose and subtracting the radioactivity remaining in the syringe and the tail vein catheter.
(§2) Images were reconstructed using a maximum a posteriori (MAP) algorithm with attenuation correction using the collected transmission images and corrected for radioisotope decay. In the final images, regions of interest (ROIs) were drawn around the tumor boundary using ASIPro software (Siemens Preclinical Solutions). Time-activity curves were calculated for each ROI to yield a quantitative view of radiotracer within the tumor volume over the course of the 2 hour emission image. For final comparison, individual time-activity curves were normalized based on the injected radiotracer dose for each specific animal. Radiotracer uptake was compared across tumors using the final 10 minutes of each time-activity curve (1 hour 50 minutes-2h post-radiotracer injection).

[2] = target: T1, human PD-L1 expressed on cells …; test: in vivo PET in mice, co-injected with 3 mg/kg unlabeled A02 Adnectin as competitor
Description: as §1, §2

[3] = target: T1, human PD-L1 expressed on cells …; test: in vivo PET in mice with bilateral xenografts
Source text: Briefly, nude mice were subcutaneously implanted bilaterally with HT-29 and L2987 cells. Once tumors reached approximately 200-300 mm³, animals were selected for imaging. Mice were anesthetized with 2% isoflurane in oxygen and placed onto the imaging bed of a Focus 120 PET imaging system (Siemens Preclinical Solutions). […] A 10-minute transmission image was then collected using a ⁵⁷Co point source for use as attenuation correction. Images were reconstructed using a 3D maximum a posteriori algorithm with attenuation correction using AsiPro software (Siemens Preclinical Solutions).

[4] = target: T1, human PD-L1 expressed on cells …; test: cell binding to human PD-L1 positive L2987 cells; Adnectin marked (Cys-Capped)
[5] = target: T1, human PD-L1 expressed on cells …; test: radiotracer cell binding, 1 h on ice, gamma counter
Description: After the incubation period, cell samples were centrifuged at 200×g and the supernatant was discarded. Cell pellets were resuspended in 1 mL PBS+0.5% BSA and the wash procedure repeated for a total of 3 washes. Following the final wash, cells were again centrifuged at 200×g and the supernatant was discarded. The radioactivity of the remaining cell pellets was then measured by gamma counter.

B1: 64Cu-A02-NODAGA (designed binder)
chain: GVSDVPRDLEVVAATPTSLLISWSYDGPIDRYYRITYGETGGNSPVQEFTVPPDQKTATISGLKPGVDYTITVYAVRLEEAHYNREFPISINYRTPC
modifications: C-terminal cysteine linked by maleimide to NODAGA chelating 64Cu
notes: A02 with C-terminal PC; also called NODAGA-64Cu-labeled A02 anti-PD-L1 Adnectin
radiotracer uptake, hPD-L1(+) L2987 xenografts against hPD-L1(-) HT-29 xenografts [1]: 3.05 fold | radiotracer uptake, hPD-L1(+) L2987 xenografts against hPD-L1(-) HT-29 xenografts, with cold competitor [2]: 1.04 fold

B2: [18F]-A02-4PEG-DBCO-FPPEGA (designed binder)
chain: B1 chain
modifications: C-terminal cysteine linked to Maleamide-DBCO-FFP(18F)
notes: also called 18F-DBCO-A02 anti-PD-L1 Adnectin; ADX_5322_A02-Mal-DBCO-FFPF18
maximum radiotracer uptake ratio, hPD-L1(+) L2987 against hPD-L1(-) HT-29 xenografts [3]: 3.53 ratio

Further lines, results first:

EC50 [4]: 0.43 nM
B3: ADX_5322_A02 (designed binder)
chain: MGVSDVPRDLEVVAATPTSLLISWSYDGPIDRYYRITYGETGGNSPVQEFTVPPDQKTATISGLKPGVDYTITVYAVRLEEAHYNREFPISINYRTPCHHHHHH
notes: C-terminus NYRTPCH6

fold cell associated radioactivity, hPD-L1-positive L2987 cells against hPD-L1-negative HT-29 cells [5]: 44.6 fold
B4: 64Cu-E01-NODAGA (designed binder)
chain: GVSDVPRDLEVVAATPTSLLISWRAQLSPSFYYRITYGETGGNSPVQEFTVPNDVMTATISGLKPGVDYTITVYAVTTHGVYFYSPISINYRTPC
modifications: C-terminal cysteine linked by maleimide to NODAGA chelating 64Cu
notes: E01 with C-terminal PC (ADX_5417_E01 w/ N leader and modified C-terminus); also called 64Cu-E01 anti-PD-L1 Adnectin
